Columns and labels:
Test in all cases: fluorescence polarisation; competition set-up: constant concentration of isolated PSD95 PDZ domain and Cy5-labeled reference ligand titrated with the unlabeled CRHR1 peptide
[1] = target: isolated PDZ1-2 tandem of PSD95 (UniProt P78352)
[2] = target: isolated PDZ3 domain of PSD95 (UniProt P78352)
[3] = target: isolated PDZ2 domain of PSD95 (UniProt P78352)
[4] = target: isolated PDZ1 domain of PSD95 (UniProt P78352)
Chain of isolated PDZ1 domain of PSD95 (P78352 whole entry, the tested form may be a part): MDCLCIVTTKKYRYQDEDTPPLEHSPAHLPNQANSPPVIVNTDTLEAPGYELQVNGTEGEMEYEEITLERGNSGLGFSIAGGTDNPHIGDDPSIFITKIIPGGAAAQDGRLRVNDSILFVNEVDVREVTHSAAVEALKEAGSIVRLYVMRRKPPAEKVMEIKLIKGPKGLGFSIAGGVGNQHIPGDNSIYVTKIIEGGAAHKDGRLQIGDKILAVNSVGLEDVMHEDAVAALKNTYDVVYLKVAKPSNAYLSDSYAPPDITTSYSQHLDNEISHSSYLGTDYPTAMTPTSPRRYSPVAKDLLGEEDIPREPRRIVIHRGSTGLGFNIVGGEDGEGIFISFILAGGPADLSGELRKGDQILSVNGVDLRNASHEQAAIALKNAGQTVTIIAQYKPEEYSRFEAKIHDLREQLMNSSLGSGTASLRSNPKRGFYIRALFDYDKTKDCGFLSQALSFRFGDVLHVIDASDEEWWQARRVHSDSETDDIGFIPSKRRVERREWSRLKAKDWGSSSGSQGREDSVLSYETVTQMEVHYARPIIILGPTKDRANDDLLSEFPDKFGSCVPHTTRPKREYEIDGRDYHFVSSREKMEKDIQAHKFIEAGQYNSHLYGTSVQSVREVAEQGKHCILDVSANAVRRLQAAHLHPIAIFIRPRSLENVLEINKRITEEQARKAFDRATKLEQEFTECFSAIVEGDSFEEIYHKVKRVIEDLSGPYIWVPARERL

Chain of C-terminal 10 amino acids of CRHR1 (unlabeled CRHR1 peptide) (P35347 whole entry, looked up, tested part not stated): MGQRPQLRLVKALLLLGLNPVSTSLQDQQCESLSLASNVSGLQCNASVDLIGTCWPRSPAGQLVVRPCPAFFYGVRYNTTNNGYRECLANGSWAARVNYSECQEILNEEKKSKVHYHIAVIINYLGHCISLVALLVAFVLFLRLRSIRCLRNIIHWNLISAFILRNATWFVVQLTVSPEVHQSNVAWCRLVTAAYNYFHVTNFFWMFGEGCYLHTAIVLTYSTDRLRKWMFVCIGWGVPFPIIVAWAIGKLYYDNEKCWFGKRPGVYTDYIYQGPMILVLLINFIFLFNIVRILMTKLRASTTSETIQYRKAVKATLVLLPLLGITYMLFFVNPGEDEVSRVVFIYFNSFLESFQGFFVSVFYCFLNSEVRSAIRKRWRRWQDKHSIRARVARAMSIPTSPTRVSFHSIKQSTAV
Chain of isolated PDZ3 domain of PSD95 (P78352 whole entry, the tested form may be a part): as the sequence (P78352 whole entry, the tested form may be a part) above
Chain of isolated PDZ1-2 tandem of PSD95 (P78352 whole entry, the tested form may be a part): as above
Chain of isolated PDZ2 domain of PSD95 (P78352 whole entry, the tested form may be a part): as above

C-terminal 10 amino acids of CRHR1 (unlabeled CRHR1 peptide) (from UniProt P35347 406-415)
Ki [1]: 24 µM | Ki [2]: 48 µM | Ki [3]: 19 µM | Ki [4]: 77 µM

Reference: article PMC4564177
